# Assay results taken from PMC11063955, “A multiplexed time-resolved fluorescence resonance energy transfer ultrahigh-throughput screening assay for targeting the SMAD4–SMAD3–DNA complex” (Journal of Molecular Cell Biology, 2023).
# B1: Flag-tagged SMAD3 WT (natural protein, UniProt P84022 1-425, looked up)
# chain: MSSILPFTPPIVKRLLGWKKGEQNGQEEKWCEKAVKSLVKKLKKTGQLDELEKAITTQNVNTKCITIPRSLDGRLQVSHRKGLPHVIYCRLWRWPDLHSHHELRAMELCEFAFNMKKDEVCVNPYHYQRVETPVLPPVLVPRHTEIPAEFPPLDDYSHSIPENTNFPAGIEPQSNIPETPPPGYLSEDGETSDHQMNHSMDAGSPNLSPNPMSPAHNNLDLQPVTYCEPAFWCSISYYELNQRVGETFHASQPSMTVDGFTDPSNSERFCLGLLSNVNRNAAVELTRRHIGRGVRLYYIGGEVFAECLSDSAIFVQSPNCNQRYGWHPATVCKIPPGCNLKIFNNQEFAALLAQSVNQGFEAVYQLTRMCTIRMSFVKGWGAEYRRQTVTSTPCWIELHLNGPLQWLDKVLTQMGSPSIRCSSVS
# Target: T1, His-tagged SMAD4 WT (Mothers against decapentaplegic homolog 4) (UniProt Q13485 1-552)
# T1 sequence (looked up): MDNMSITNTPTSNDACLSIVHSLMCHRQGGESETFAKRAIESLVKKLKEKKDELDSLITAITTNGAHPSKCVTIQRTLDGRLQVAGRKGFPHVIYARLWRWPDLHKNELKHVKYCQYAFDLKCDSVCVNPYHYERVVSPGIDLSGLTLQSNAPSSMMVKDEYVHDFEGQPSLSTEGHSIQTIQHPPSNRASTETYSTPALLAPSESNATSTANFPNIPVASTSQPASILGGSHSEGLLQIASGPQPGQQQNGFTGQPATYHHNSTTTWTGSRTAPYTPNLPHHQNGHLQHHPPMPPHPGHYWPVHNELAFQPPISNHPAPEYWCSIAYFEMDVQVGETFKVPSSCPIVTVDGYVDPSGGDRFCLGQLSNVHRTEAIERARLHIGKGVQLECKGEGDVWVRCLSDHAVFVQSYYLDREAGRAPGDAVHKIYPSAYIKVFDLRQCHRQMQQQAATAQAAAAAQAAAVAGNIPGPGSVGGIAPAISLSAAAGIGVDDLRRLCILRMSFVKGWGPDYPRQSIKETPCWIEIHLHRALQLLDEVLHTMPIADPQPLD
# Experiment: cell-based or functional assay
binder,measurement,value
B1,"SBE4-luciferase reporter activity upon TGFβ (10 ng/ml) stimulation, HEK293T cells with endogenous SMAD4 and SMAD3, fold-of-change",> 3 fold
